Laboratory results taken from US20190071480A1 (Biogen, published 2019).

What was measured:
[1] = target: T1, extracellular domain of activin receptor type IIB (ActRIIBecd), biotinylated (Homo sapiens (Human), UniProt Q13705 27-117, amino-biotinylated with amine-PEG3-Biotin); experiment: BIAcore SPR, biotinylated ActRIIBecd on chip; SD ±13.97 nM
T1 construct: immobilised on a streptavidin-coated sensor chip; also called biotinylated ActRIIBecd; extracellular domain of ActRIIB
T1 sequence: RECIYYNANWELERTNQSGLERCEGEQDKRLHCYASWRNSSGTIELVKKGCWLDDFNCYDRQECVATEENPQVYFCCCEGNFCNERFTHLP
Description: (§1) Biosensor experiments. In one embodiment, experiments were performed on a BIAcore™ T100/T200 instrument (Pharmacia Biosensor AB) in the multichannel mode (serial flow path involving flow cells 1+2+3+4). Flow rate was 10 μl/min; temperature was 25° C.; and data were recorded at 2.5 points/s. All four segments of a sensor chip CMS were coated with streptavidin (Sigma) to a density of 2000 pg/mm² (2000 resonance units) by the aminocoupling procedure. ActRIIBecd (10 mg) and amine-PEG3-Biotin (10 mg, Pierce, Rockford, Ill.) were dissolved in 200 μl H₂O and 10 mg NaCNBH₃ was added to prepare biotinylated ActRIIBecd. The reaction mixture was heated at 70° C. for 24 h, after that a further 10 mg NaCNBH₃ was added and the reaction was heated at 70° C. for another 24 h. After cooling to room temperature, the mixture was desalted with the spin column (3,000 molecular weight cut off (MWCO)). […] Sensograms were recorded during flow of the analyte (the ActRIIBecd-associated polypeptides (i.e., domains) as previously described) first through flow cell 1 (control) then through flow cell 2 (biotinylated ActRIIBecd). […] The sensograms obtained at 1.11, 3.33, 10, 30, and 90 nM analyte were evaluated for equilibrium binding, association rate, and dissociation rate by using the programs supplied with the instrument (BIA evaluation 2.1; Software Handbook. 1995; Pharmacia Biosensor AB).

[2] = target: T1, extracellular domain of activin …; experiment: BIAcore SPR, biotinylated ActRIIBecd on chip; SD ±16.71 nM
Description: as §1

[3] = target: T1, extracellular domain of activin …; experiment: BIAcore SPR, biotinylated ActRIIBecd on chip; SD ±15.39 nM
Description: as §1

[4] = target: T1, extracellular domain of activin …; experiment: BIAcore SPR, biotinylated ActRIIBecd on chip; SD ±12.10 nM
Description: as §1

[5] = target: T1, extracellular domain of activin …; experiment: Mean KD column of Table 5; method not restated (BIAcore as Example 5); species also listed in Table 4
Summary of the method: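 SPR at 25° C. and 10 μl/min: analyte at 1.11-90 nM (five concentrations, glycine buffer pH 4.5) passed over a control cell, then over streptavidin-captured biotinylated ActRIIBecd at 50-250 RU. Kinetic and equilibrium constants came from control-subtracted sensorgrams.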

[6] = target: T1, extracellular domain of activin …; experiment: BIAcore SPR as Example 5 (method not restated); SD ±2.12 nM
Description: as §1

[7] = target: T1, extracellular domain of activin …; experiment: BIAcore SPR, biotinylated ActRIIBecd on chip; SD ±12.04 nM
Description: as §1

[8] = target: T1, extracellular domain of activin …; experiment: BIAcore SPR, biotinylated ActRIIBecd on chip; SD ±11.61 nM
Description: as §1

[9] = target: T1, extracellular domain of activin …; experiment: BIAcore SPR as Example 5 (method not restated); SD ±2.01 nM
Description: as §1

B1: Recombinant polypeptide of clones 10 + 19 + 14 (designed binder)
chain: AQAKHKQRKRLKSSCKRHPLYNSKDPKACCVPTELSAPSPLYLDENEKPVLKNYQDMVVHGCGCRVDFKDVGWNDHAVAPPGYHAFYCHGECPFPLADHLNSDNHAIVQTKVNSV
B1 gave a Kd [1] of 17 nM.

AQAKHKGYKRLKSSCKRHPLY [Clone No. 9 domain (ActRIIBecd-associated polypeptide)] gave a Kd [2] of 52.4 nM.

Binder GQAKRKGYKRLKSSCKRHPLY [Clone No. 8 domain (ActRIIBecd-associated polypeptide)] has a Kd [3] of 45.1 nM.

B2: Recombinant polypeptide of clones 8 + 21 + 15 (designed binder)
chain: GQAKRKGYKRLKSSCKRHPLYNSKIPKACCVPTELSAISMLYLDENEKVVLKNYQDMVVEGCGCRVDFSDVGWNDWIVAPPGYHAFYCHGECPFPLADHLNSTNHAIVQTLVNSV
B2 was tested, and the Kd [4] was 17.1 nM.

B3: SEQ ID NO: 188, cysteine pairs C15-C44^a (designed binder)
chain: AQAKHKQRKRLKSSCKRHPLYVDFSDVGWNDWIVAPPGYHAFYCHGECPFPLADHLNSTNHAIVQTLVNSV
modifications: disulfides C15-C44 (intra)
Binder B3 has a Kd [5] of 42.3 nM and a Kd [6] of 42.3 nM.

B4: Recombinant polypeptide of clones 8 + 15 + 19 (designed binder)
chain: GQAKRKGYKRLKSSCKRHPLYVDFSDVGWNDWIVAPPGYHAFYCHGECPFPLADHLNSTNHAIVQTLVNSVNSKDPKACCVPTELSAPSPLYLDENEKPVLKNYQDMVVHGCGCR
B4 gave a Kd [7] of 16.5 nM.

B5: Recombinant polypeptide of clones 10 + 14 + 21 (designed binder)
chain: AQAKHKQRKRLKSSCKRHPLYVDFKDVGWNDHAVAPPGYHAFYCHGECPFPLADHLNSDNHAIVQTKVNSVNSKIPKACCVPTELSAISMLYLDENEKVVLKNYQDMVVEGCGCR
B5 gave a Kd [8] of 18 nM.

B6: SEQ ID NO: 194, cysteine pairs C23-C65^a (designed binder)
chain: VDFSDVGWNDWIVAPPGYHAFYCHGECPFPLADHLNSTNHAIVQTLVNSVAQAKHKQRKRLKSSCKRHPLY
modifications: disulfides C23-C65 (intra)
For B6, the Kd [5] was 46 nM and the Kd [9] was 46 nM.
